Residue numbers refer to the chain shown, from its start.

For experiment [1], the target named is T1, human IL-1α (human, UniProt P01583 113-271).
T1 sequence (looked up): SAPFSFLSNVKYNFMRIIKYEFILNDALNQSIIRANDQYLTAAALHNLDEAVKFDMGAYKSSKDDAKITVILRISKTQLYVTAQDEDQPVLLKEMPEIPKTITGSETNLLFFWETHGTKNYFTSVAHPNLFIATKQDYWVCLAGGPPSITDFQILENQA
Briefly: cell-based or functional assay.

In experiment [2] the target is T1, human IL-1α. Briefly: Table 62 IC50; RBA presumed.

B1: ABT1-92 (other)
VH: EVQLLESGGGLVQPGGSLRLSCAASGFTFSTYTMTWVRQAPGKGLEWVSTIFPGGSTTYYADSVKGRFTISRDNSKNTLYLQMNSLRAEDTAVYYCAKYVDFVKLSFDYWGQRTLVTVSS
notes: VH dAb
What is called IC50 is the concentration that inhibits the measured activity by half. Read a low IC50 as higher potency. In turn, B1 gave an ND50 in experiment [1] greater than 10000 nM. This molecule also displayed an IC50 in experiment [2] greater than 10000 nM.

B2: ABT1-6-15 (other)
VH: EVQLLESGGGLVQPGGSLRLSCAASGFTFVRYDMAWVRQAPGKGLEWVSSINKSGALTSYADSVKGRFTISRDNSKNTLYLQMNSLRAEDTAVYYCAKGWASFDYWGQGTLVTVSS
notes: VH dAb
For B2, the ND50 in experiment [1] was determined as 500 nM. For the same molecule, the half-inhibitory concentration (IC50) in experiment [2] worked out at 200 nM.

B3: ABT1-6 (other)
VH: B2 VH with V30G, R31A, A35Q
notes: VH dAb
In turn, B3 displayed an ND50 in experiment [1] of 3000 nM. Besides, it took 3000 nM to reach half-maximal inhibition in experiment [2] (IC50).

B4: ABT1-6-3 (other)
VH: B2 VH with V30G, R31A, A35Q, N52Y
notes: VH dAb
Take B4: the ND50 in experiment [1] amounted to 60 nM. The molecule also registered an IC50 in experiment [2] of 80 nM.

B5: ABT1-95-102 (other)
VL: DIQMTQSPSSLSASVGDRVTITCRASQPIVRNLRWYQQKPGKAPKLLIYSSSYLQPGVPSRFSGSGSGTDFTLTISSLQPEDFATYHCQQGYRWPVTFGQGTKVEIKR
notes: VK dAb
B5: the ND50 in experiment [1] was found to be 0.184 nM. This molecule also displayed an IC50 in experiment [2] of 0.1 nM.

B6: ABT1-95-139 (other)
VL: B5 VL with P28Q, Q55E
notes: VK dAb
Regarding B6, the ND50 in experiment [1] was 0.1 nM. The molecule further showed an IC50 in experiment [2] of 0.2 nM.

B7: ABT1-95-122 (other)
VL: B5 VL with Q55E, T72I
notes: VK dAb
In experiment [1], B7 had an ND50 of 0.116 nM. Also, in experiment [2], the IC50 was determined as 0.1 nM.

B8: ABT1-95-148 (other)
VL: B5 VL with P28T, Q55E
notes: VK dAb
On to B8, for which the ND50 in experiment [1] came to 0.19 nM. The molecule further gave an IC50 in experiment [2] of 0.2 nM.

B9: ABT1-95-160 (other)
VL: B5 VL with Q55E, R93V
notes: VK dAb
As to B9, in experiment [1], the ND50 was determined as 0.238 nM. This molecule also displayed a half-maximal inhibitory concentration (IC50) in experiment [2] of 0.1 nM.

B10: ABT1-95-131 (other)
VL: B5 VL with I29T, Q55E
notes: VK dAb
In the case of B10, the ND50 in experiment [1] was 0.085 nM. Also, half-maximal inhibition in experiment [2] (IC50) was put at 0.1 nM.

B11: ABT1-95-132 (other)
VL: B5 VL with K42I, Q55E, L78P
notes: VK dAb
Molecule B11 returned an ND50 in experiment [1] of 2 nM. The molecule also had an IC50 in experiment [2] of 0.1 nM.

B12: ABT1-95-118 (other)
VL: B5 VL with Q55E, Q89S
notes: VK dAb
As to B12, the ND50 in experiment [1] turned out to be 0.122 nM. In addition, the IC50 in experiment [2] was found to be 0.2 nM.

B13: ABT1-95-161 (other)
VL: B5 VL with Q55E, V96P
notes: VK dAb
In experiment [1], B13 had an ND50 of 0.5 nM. Further, half-maximal inhibition in experiment [2] (IC50) required 0.1 nM.

B14: ABT1-163 (other)
VL: DIQMTQSPSSLSASVGDRVTITCRASGNIVHNLRWYQQKPGKAPKLLIYAASRLQSGVPSRFSGSGSGTDFTLTISSLQPEDFATYYCAQGYEWPLTFGQGTKVEIKQ
notes: VK dAb
For the molecule B14, the ND50 in experiment [1] is 105 nM. Further, it took 1000 nM to reach half-maximal inhibition in experiment [2] (IC50).

B15: ABT1-164 (other)
VL: DIQMTQSPSSLSASVGDRVTITCRASRPIAGNLRWYQQKPGKAPKLLIWGASSLQSGVPSRFSGSGSGTDFTLTISSLQPEDFATYYCVQGWQWPITFGQGTKVEIKR
notes: VK dAb
In the case of B15, the ND50 in experiment [1] was found to be 14 nM. In experiment [2], the concentration for half-maximal inhibition (IC50) is greater than 1000 nM.

B16: ABT1-95-116 (other)
VL: B5 VL with Q55E, Q89V
notes: VK dAb
Molecule B16 displayed an ND50 in experiment [1] of 0.168 nM. In addition, the IC50 in experiment [2] turned out to be 0.2 nM.

B17: ABT1-95-117 (other)
VL: B5 VL with Q55E, T85M, Q89V
notes: VK dAb
Regarding B17, the ND50 in experiment [1] was 0.1 nM. Also, in experiment [2], inhibition was half-maximal at 0.2 nM (IC50).

B18: ABT1-95-149 (other)
VL: B5 VL with P28A, Q55E
notes: VK dAb
Turning to B18, the ND50 in experiment [1] was 0.064 nM. The molecule also showed an IC50 in experiment [2] of 0.2 nM.

B19: ABT1-95-115 (other)
VL: B5 VL with Q55E, Q89L
notes: VK dAb
B19 came in with an ND50 in experiment [1] of 0.23 nM. Moreover, the IC50 in experiment [2] was 0.2 nM.

B20: ABT1-95-121 (other)
VL: B5 VL with Q55E, R93E
notes: VK dAb
Turning to B20, the ND50 in experiment [1] was 0.1 nM. In experiment [2], this molecule displayed an IC50 of 0.2 nM.

B21: ABT1-95-107 (other)
VL: B5 VL with Q55E, P56H
notes: VK dAb
Molecule B21 showed an ND50 in experiment [1] of 0.5 nM. Inhibition in experiment [2] was half-maximal at 0.1 nM (IC50).

B22: ABT1-122-18 (other)
VL: DIQMTQSPSSLSASVGDRVTITCRASQPIWTELNWYQQKPGKAPKLLVYGSSSLQSGVPSRFSGSGSGTDFTLTISSLQPEDFATYYCQQFAYFPATFGQGTKVEIKR
notes: VK dAb
For B22, in experiment [1], the ND50 was 7 nM. This molecule gave an IC50 in experiment [2] of 5 nM.

B23: ABT1-122-511 (other)
VL: B22 VL with V48I, S56R, Q89K
notes: VK dAb
On to B23, for which the ND50 in experiment [1] came out at 18 nM. Inhibition in experiment [2] was half-maximal at 10 nM (IC50).

B24: ABT1-122-21 (other)
VL: B22 VL with V48I, S60T
notes: VK dAb
B24 registered an ND50 in experiment [1] of 100 nM. In experiment [2], this molecule had a 50% inhibitory concentration (IC50) of 80 nM.

B25: ABT1-93 (other)
VH: EVQLLESGGGLVQPGGSLRLSCAASGFTFNEYNMVWVRQAPGKGLEWVSSISGGGGFTYYADSVKGRFTISRDNSKNTLYLQMNSLRAEDTAVYYCAKPLRGFVCSQHCSFDYWGQGTLVTVSS
notes: VH dAb
As to B25, in experiment [1], the ND50 is 5000 nM. The molecule further came in with a half-inhibitory concentration (IC50) in experiment [2] greater than 10000 nM.

B26: ABT1-141-43 (other)
VL: DIQMTQSPSSLSASVGDRVTITCRASQWIQKQLAWYQQKPGKAPKLLIYSSSYLQSGVPPRFSGSGSGTDFTLTISSLQPEDFATYYCQQHLRVPMTFGQGTKVEIKR
notes: VK dAb
In experiment [1], B26 showed an ND50 of 5 nM. In addition, the IC50 in experiment [2] stood at 3 nM.

B27: ABT1-141-80 (other)
VL: B26 VL with S26N, Y53H, P60S, S67Y
notes: VK dAb
For B27, in experiment [1], the ND50 was found to be 1.7 nM. The IC50 in experiment [2] is 3 nM.

B28: ABT1-141-78 (other)
VL: B26 VL with S26N, Y53H, P60S, S67Y, E81Q
notes: VK dAb
B28 displayed an ND50 in experiment [1] of 0.7 nM. Also, the IC50 in experiment [2] was found to be 3 nM.

B29: ABT1-141-70 (other)
VL: B26 VL with Y53H, P60S, S67Y
notes: VK dAb
Regarding B29, the ND50 in experiment [1] was 1 nM. The IC50 in experiment [2] amounted to 1 nM.

B30: ABT1-141-79 (other)
VL: B26 VL with S26N, Y49F, Y53H, P60S
notes: VK dAb
B30 returned an ND50 in experiment [1] of 2.4 nM. In addition, 3 nM corresponded to half-maximal inhibition in experiment [2] (IC50).

B31: ABT1-141-47 (other)
VL: B26 VL with S26N, Y53H, P60S, E81Q
notes: VK dAb
Consider B31, for which the ND50 in experiment [1] came out at 1 nM. The molecule also showed an IC50 in experiment [2] of 1 nM.

B32: ABT1-141-49 (other)
VL: B26 VL with Q38L, Y53H, L54S, P60S
notes: VK dAb
In experiment [1], B32 returned an ND50 of 5 nM. This molecule also showed an IC50 in experiment [2] of 3 nM.

B33: ABT1-141-48 (other)
VL: B26 VL with Y49F, Y53H, P60S, T85S
notes: VK dAb
In the case of B33, the ND50 in experiment [1] was found to be 1 nM. Moreover, half-maximal inhibition in experiment [2] (IC50) was put at 3 nM.

B34: ABT1-141-53 (other)
VL: B26 VL with Q38L, A43T, Y49F, P60S
notes: VK dAb
B34 came in with an ND50 in experiment [1] of 10 nM. For the same molecule, the half-inhibitory concentration (IC50) in experiment [2] stood at 50 nM.

B35: ABT1-141-77 (other)
VL: B26 VL with S26N, Y49F, Y53H, P60S, E81Q
notes: VK dAb
As for B35, the ND50 in experiment [1] amounted to 1 nM. The midpoint of inhibition in experiment [2], the IC50, lay at 3 nM.

B36: ABT1-141-76 (other)
VL: B26 VL with S26N, Y53H, P60S
notes: VK dAb
Turning to B36, the ND50 in experiment [1] is 1 nM. Besides, the IC50 in experiment [2] worked out at 1 nM.

B37: ABT1-141-45 (other)
VL: B26 VL with P60S, P80L, F98L
notes: VK dAb
The molecule B37 came in with an ND50 in experiment [1] of 100 nM. Moreover, the midpoint of inhibition in experiment [2], the IC50, lay at 100 nM.

B38: ABT1-141-50 (other)
VL: B26 VL with A43T, P60S, K103N
notes: VK dAb
Turning to B38, the ND50 in experiment [1] was determined as 20 nM. The same molecule gave an IC50 in experiment [2] of 10 nM.

B39: ABT1-141-51 (other)
VL: B26 VL with A43V, P60S, Q79E, E105V
notes: VK dAb
Consider B39, for which the ND50 in experiment [1] stood at 20 nM. Moreover, inhibition in experiment [2] was half-maximal at 10 nM (IC50).

B40: ABT1-148 (other)
VL: DIQMTQSPSSLSASVGDRVTITCRASQSISSYLNWYQQKPGKAPKLLIGALSGLQSGVPSRFSGSGSGTDFTLTISSLQPEDFATYYCMQWYRHPSTFGQGTKVEIKR
notes: VK dAb
In experiment [1], B40 came in with an ND50 of 100 nM. Half-maximal inhibition in experiment [2] (IC50) required 400 nM.

B41: ABT1-158 (other)
VL: DIQMTQSPSSLSASVGDRVTITCRASRSIGRGLNWYQQKPGKAPKLLIGGWSGLQSGVPSRFSGSGSGTDFTLTISSLQPEDFATYYCAQASPLPTFGQGTKVEIKR
notes: VK dAb
Take B41: the ND50 in experiment [1] was less than 100 nM. Moreover, the IC50 in experiment [2] was found to be 2 nM.

Source of the values: patent publication US20090291081A1 (AbbVie / Abbott, published 2009).
